Laboratory results: US20210388087A1 (Chugai, published 2021)

T1: Human CD3eg linker (human)
T1 construct: Single-chain construct; also called recombinant human CD3
T1 chain: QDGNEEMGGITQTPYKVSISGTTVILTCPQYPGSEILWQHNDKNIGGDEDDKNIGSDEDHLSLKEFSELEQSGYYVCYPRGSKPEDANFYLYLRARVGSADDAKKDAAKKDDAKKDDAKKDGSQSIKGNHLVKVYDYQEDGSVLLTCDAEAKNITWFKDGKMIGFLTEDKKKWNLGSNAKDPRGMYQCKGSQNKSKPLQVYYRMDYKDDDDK


Target: T1, Human CD3eg linker
Assay: SPR; fold vs parent H183/L072

Binder	fold change of affinity
H183/L072 VL Q24G (antibody, name in Kabat numbering, V domains shown) VH: QVQLVESGGGLVQPGRSLRLSCAASGFTFSNAWMHWVRQAPGKGLEWVAQIKDKGNAYAAYYAPSVKGRFTISRDDSKNSIYLQMNSLKTEDTAVYYCHYVHYASASTVLPAFGVDAWGQGTTVTVSS VL: DIVMTQSPLSLPVTPGEPASISCGASQELVHMNRNTYLHWYQQKPGQAPRLLIYKVSNRFPGVPDRFSGSGSGTDFTLKISRVEAEDVGVYYCAQGTSVPFTFGQGTKLEIK	1.2 fold
H183/L072 VL Q27H (antibody, name in Kabat numbering, V domains shown) VH: QVQLVESGGGLVQPGRSLRLSCAASGFTFSNAWMHWVRQAPGKGLEWVAQIKDKGNAYAAYYAPSVKGRFTISRDDSKNSIYLQMNSLKTEDTAVYYCHYVHYASASTVLPAFGVDAWGQGTTVTVSS VL: DIVMTQSPLSLPVTPGEPASISCQASHELVHMNRNTYLHWYQQKPGQAPRLLIYKVSNRFPGVPDRFSGSGSGTDFTLKISRVEAEDVGVYYCAQGTSVPFTFGQGTKLEIK	1.2 fold
H183/L072 VL Q24N (antibody, name in Kabat numbering, V domains shown) VH: QVQLVESGGGLVQPGRSLRLSCAASGFTFSNAWMHWVRQAPGKGLEWVAQIKDKGNAYAAYYAPSVKGRFTISRDDSKNSIYLQMNSLKTEDTAVYYCHYVHYASASTVLPAFGVDAWGQGTTVTVSS VL: DIVMTQSPLSLPVTPGEPASISCNASQELVHMNRNTYLHWYQQKPGQAPRLLIYKVSNRFPGVPDRFSGSGSGTDFTLKISRVEAEDVGVYYCAQGTSVPFTFGQGTKLEIK	1.1 fold
H183/L072 VL Q24Y (antibody, name in Kabat numbering, V domains shown) VH: QVQLVESGGGLVQPGRSLRLSCAASGFTFSNAWMHWVRQAPGKGLEWVAQIKDKGNAYAAYYAPSVKGRFTISRDDSKNSIYLQMNSLKTEDTAVYYCHYVHYASASTVLPAFGVDAWGQGTTVTVSS VL: DIVMTQSPLSLPVTPGEPASISCYASQELVHMNRNTYLHWYQQKPGQAPRLLIYKVSNRFPGVPDRFSGSGSGTDFTLKISRVEAEDVGVYYCAQGTSVPFTFGQGTKLEIK	1 fold
H183/L072 VL Q27A (antibody, name in Kabat numbering, V domains shown) VH: QVQLVESGGGLVQPGRSLRLSCAASGFTFSNAWMHWVRQAPGKGLEWVAQIKDKGNAYAAYYAPSVKGRFTISRDDSKNSIYLQMNSLKTEDTAVYYCHYVHYASASTVLPAFGVDAWGQGTTVTVSS VL: DIVMTQSPLSLPVTPGEPASISCQASAELVHMNRNTYLHWYQQKPGQAPRLLIYKVSNRFPGVPDRFSGSGSGTDFTLKISRVEAEDVGVYYCAQGTSVPFTFGQGTKLEIK	1.2 fold
H183/L072 VL Q24L (antibody, name in Kabat numbering, V domains shown) VH: QVQLVESGGGLVQPGRSLRLSCAASGFTFSNAWMHWVRQAPGKGLEWVAQIKDKGNAYAAYYAPSVKGRFTISRDDSKNSIYLQMNSLKTEDTAVYYCHYVHYASASTVLPAFGVDAWGQGTTVTVSS VL: DIVMTQSPLSLPVTPGEPASISCLASQELVHMNRNTYLHWYQQKPGQAPRLLIYKVSNRFPGVPDRFSGSGSGTDFTLKISRVEAEDVGVYYCAQGTSVPFTFGQGTKLEIK	1.2 fold
H183/L072 VL Q24H (antibody, name in Kabat numbering, V domains shown) VH: QVQLVESGGGLVQPGRSLRLSCAASGFTFSNAWMHWVRQAPGKGLEWVAQIKDKGNAYAAYYAPSVKGRFTISRDDSKNSIYLQMNSLKTEDTAVYYCHYVHYASASTVLPAFGVDAWGQGTTVTVSS VL: DIVMTQSPLSLPVTPGEPASISCHASQELVHMNRNTYLHWYQQKPGQAPRLLIYKVSNRFPGVPDRFSGSGSGTDFTLKISRVEAEDVGVYYCAQGTSVPFTFGQGTKLEIK	1.1 fold
H183/L072 VL Q24I (antibody, name in Kabat numbering, V domains shown) VH: QVQLVESGGGLVQPGRSLRLSCAASGFTFSNAWMHWVRQAPGKGLEWVAQIKDKGNAYAAYYAPSVKGRFTISRDDSKNSIYLQMNSLKTEDTAVYYCHYVHYASASTVLPAFGVDAWGQGTTVTVSS VL: DIVMTQSPLSLPVTPGEPASISCIASQELVHMNRNTYLHWYQQKPGQAPRLLIYKVSNRFPGVPDRFSGSGSGTDFTLKISRVEAEDVGVYYCAQGTSVPFTFGQGTKLEIK	1.2 fold
H183/L072 VL Q24R (antibody, name in Kabat numbering, V domains shown) VH: QVQLVESGGGLVQPGRSLRLSCAASGFTFSNAWMHWVRQAPGKGLEWVAQIKDKGNAYAAYYAPSVKGRFTISRDDSKNSIYLQMNSLKTEDTAVYYCHYVHYASASTVLPAFGVDAWGQGTTVTVSS VL: DIVMTQSPLSLPVTPGEPASISCRASQELVHMNRNTYLHWYQQKPGQAPRLLIYKVSNRFPGVPDRFSGSGSGTDFTLKISRVEAEDVGVYYCAQGTSVPFTFGQGTKLEIK	1 fold
H183/L072 VL Q27G (antibody, name in Kabat numbering, V domains shown) VH: QVQLVESGGGLVQPGRSLRLSCAASGFTFSNAWMHWVRQAPGKGLEWVAQIKDKGNAYAAYYAPSVKGRFTISRDDSKNSIYLQMNSLKTEDTAVYYCHYVHYASASTVLPAFGVDAWGQGTTVTVSS VL: DIVMTQSPLSLPVTPGEPASISCQASGELVHMNRNTYLHWYQQKPGQAPRLLIYKVSNRFPGVPDRFSGSGSGTDFTLKISRVEAEDVGVYYCAQGTSVPFTFGQGTKLEIK	1 fold
H183/L072 VL Q27F (antibody, name in Kabat numbering, V domains shown) VH: QVQLVESGGGLVQPGRSLRLSCAASGFTFSNAWMHWVRQAPGKGLEWVAQIKDKGNAYAAYYAPSVKGRFTISRDDSKNSIYLQMNSLKTEDTAVYYCHYVHYASASTVLPAFGVDAWGQGTTVTVSS VL: DIVMTQSPLSLPVTPGEPASISCQASFELVHMNRNTYLHWYQQKPGQAPRLLIYKVSNRFPGVPDRFSGSGSGTDFTLKISRVEAEDVGVYYCAQGTSVPFTFGQGTKLEIK	0.9 fold
H183/L072 VL Q27E (antibody, name in Kabat numbering, V domains shown) VH: QVQLVESGGGLVQPGRSLRLSCAASGFTFSNAWMHWVRQAPGKGLEWVAQIKDKGNAYAAYYAPSVKGRFTISRDDSKNSIYLQMNSLKTEDTAVYYCHYVHYASASTVLPAFGVDAWGQGTTVTVSS VL: DIVMTQSPLSLPVTPGEPASISCQASEELVHMNRNTYLHWYQQKPGQAPRLLIYKVSNRFPGVPDRFSGSGSGTDFTLKISRVEAEDVGVYYCAQGTSVPFTFGQGTKLEIK	1.1 fold
H183/L072 VL Q24M (antibody, name in Kabat numbering, V domains shown) VH: QVQLVESGGGLVQPGRSLRLSCAASGFTFSNAWMHWVRQAPGKGLEWVAQIKDKGNAYAAYYAPSVKGRFTISRDDSKNSIYLQMNSLKTEDTAVYYCHYVHYASASTVLPAFGVDAWGQGTTVTVSS VL: DIVMTQSPLSLPVTPGEPASISCMASQELVHMNRNTYLHWYQQKPGQAPRLLIYKVSNRFPGVPDRFSGSGSGTDFTLKISRVEAEDVGVYYCAQGTSVPFTFGQGTKLEIK	1.1 fold
H183/L072 VL Q24K (antibody, name in Kabat numbering, V domains shown) VH: QVQLVESGGGLVQPGRSLRLSCAASGFTFSNAWMHWVRQAPGKGLEWVAQIKDKGNAYAAYYAPSVKGRFTISRDDSKNSIYLQMNSLKTEDTAVYYCHYVHYASASTVLPAFGVDAWGQGTTVTVSS VL: DIVMTQSPLSLPVTPGEPASISCKASQELVHMNRNTYLHWYQQKPGQAPRLLIYKVSNRFPGVPDRFSGSGSGTDFTLKISRVEAEDVGVYYCAQGTSVPFTFGQGTKLEIK	1 fold

Now from value to binder:

fold change of affinity	Binder
1.1 fold	H183/L072 VL Q24W (antibody, name in Kabat numbering, V domains shown) VH: QVQLVESGGGLVQPGRSLRLSCAASGFTFSNAWMHWVRQAPGKGLEWVAQIKDKGNAYAAYYAPSVKGRFTISRDDSKNSIYLQMNSLKTEDTAVYYCHYVHYASASTVLPAFGVDAWGQGTTVTVSS VL: DIVMTQSPLSLPVTPGEPASISCWASQELVHMNRNTYLHWYQQKPGQAPRLLIYKVSNRFPGVPDRFSGSGSGTDFTLKISRVEAEDVGVYYCAQGTSVPFTFGQGTKLEIK
0.8 fold	H183/L072 VL Q27I (antibody, name in Kabat numbering, V domains shown) VH: QVQLVESGGGLVQPGRSLRLSCAASGFTFSNAWMHWVRQAPGKGLEWVAQIKDKGNAYAAYYAPSVKGRFTISRDDSKNSIYLQMNSLKTEDTAVYYCHYVHYASASTVLPAFGVDAWGQGTTVTVSS VL: DIVMTQSPLSLPVTPGEPASISCQASIELVHMNRNTYLHWYQQKPGQAPRLLIYKVSNRFPGVPDRFSGSGSGTDFTLKISRVEAEDVGVYYCAQGTSVPFTFGQGTKLEIK
1.1 fold	H183/L072 VL Q24S (antibody, name in Kabat numbering, V domains shown) VH: QVQLVESGGGLVQPGRSLRLSCAASGFTFSNAWMHWVRQAPGKGLEWVAQIKDKGNAYAAYYAPSVKGRFTISRDDSKNSIYLQMNSLKTEDTAVYYCHYVHYASASTVLPAFGVDAWGQGTTVTVSS VL: DIVMTQSPLSLPVTPGEPASISCSASQELVHMNRNTYLHWYQQKPGQAPRLLIYKVSNRFPGVPDRFSGSGSGTDFTLKISRVEAEDVGVYYCAQGTSVPFTFGQGTKLEIK
1.1 fold	H183/L072 VL Q27D (antibody, name in Kabat numbering, V domains shown) VH: QVQLVESGGGLVQPGRSLRLSCAASGFTFSNAWMHWVRQAPGKGLEWVAQIKDKGNAYAAYYAPSVKGRFTISRDDSKNSIYLQMNSLKTEDTAVYYCHYVHYASASTVLPAFGVDAWGQGTTVTVSS VL: DIVMTQSPLSLPVTPGEPASISCQASDELVHMNRNTYLHWYQQKPGQAPRLLIYKVSNRFPGVPDRFSGSGSGTDFTLKISRVEAEDVGVYYCAQGTSVPFTFGQGTKLEIK
1.1 fold	H183/L072 VL Q24T (antibody, name in Kabat numbering, V domains shown) VH: QVQLVESGGGLVQPGRSLRLSCAASGFTFSNAWMHWVRQAPGKGLEWVAQIKDKGNAYAAYYAPSVKGRFTISRDDSKNSIYLQMNSLKTEDTAVYYCHYVHYASASTVLPAFGVDAWGQGTTVTVSS VL: DIVMTQSPLSLPVTPGEPASISCTASQELVHMNRNTYLHWYQQKPGQAPRLLIYKVSNRFPGVPDRFSGSGSGTDFTLKISRVEAEDVGVYYCAQGTSVPFTFGQGTKLEIK
1.2 fold	H183/L072 VL Q24V (antibody, name in Kabat numbering, V domains shown) VH: QVQLVESGGGLVQPGRSLRLSCAASGFTFSNAWMHWVRQAPGKGLEWVAQIKDKGNAYAAYYAPSVKGRFTISRDDSKNSIYLQMNSLKTEDTAVYYCHYVHYASASTVLPAFGVDAWGQGTTVTVSS VL: DIVMTQSPLSLPVTPGEPASISCVASQELVHMNRNTYLHWYQQKPGQAPRLLIYKVSNRFPGVPDRFSGSGSGTDFTLKISRVEAEDVGVYYCAQGTSVPFTFGQGTKLEIK
